Test results as given in the MegaScale stability set (Tsuboyama et al. 2023).

B1: HEEH_KT_rd6_0007 (parent)
chain: SIEEEIKKAEEAKEKGKTFIHGDFVATTEELLDELLKRLRKKL

Variants of: B1
Experiment: folding stability dG (cDNA display proteolysis); higher = more stable
Conditions: PBS, room temperature

Folding stability dG [kcal/mol] of substitutions, site by site:
G22: S 0.873 | T 0.814 | L 1.2 | P 0.931 | W 1.53 | K 0.822 | H 1.02 | E 1.12 | Q 0.893 | M 1.15 | N 0.979 | I 1.45 | R 0.665 | F 1.14 | D 0.958 | A 0.902 | Y 1.23 | V 1.09
E29: I 1.76 | K 1.52 | G 1.32 | D 1.21 | N 1.26 | Q 1.41 | F 1.47 | Y 1.18 | C 2.15 | P 1.78 | W 1.78 | T 1.55 | S 1.46 | A 1.63 | R 1.62 | H 1.2 | V 1.65 | L 1.64 | M 1.63
A12: S 0.754 | Y 0.791 | R 0.639 | T 0.618 | Q 0.606 | W 0.691 | P 0.459 | V 0.505
K17: R 1.13 | T 1.43 | C 2.53 | M 1.66 | D 1.19 | H 1.44 | F 1.82 | E 1.67 | P 0.793 | G 1.48 | W 1.84 | Q 1.47 | N 1.36 | S 1.18 | A 1.23 | V 1.43 | Y 1.71 | L 1.9 | I 1.59
V25: F 1.31 | M 1.18 | T 0.907 | Y 1.23 | D 0.749 | P 0.68 | I 1.41 | L 1.11 | A 1.1 | G 0.704 | K 0.938 | E 1.05 | W 1.39 | Q 1.07 | S 0.912 | R 0.704 | C 1.94 | H 1.28 | N 0.974
F19: P 0.637 | V 0.861 | T 0.77 | I 0.902 | Q 0.715 | G 0.793 | L 0.751 | K 0.811 | W 0.964 | M 0.895 | Y 1.49 | A 0.757 | D 0.713 | E 0.58 | H 0.937 | S 0.618 | N 0.745 | R 0.752
G16: H 1.25 | N 1.08 | A 0.667 | L 1.22 | S 0.957 | F 1.2 | Y 1.12 | K 1.3 | D 0.785 | Q 0.935 | E 0.895 | V 0.73 | I 1.03 | W 1.3 | R 0.873 | M 0.701 | P 0.298 | T 0.757
E30: L 1.14 | C 1.63 | A 1.41 | G 0.9 | D 1.17 | F 1.13 | H 1.15 | I 0.954 | M 1.05 | K 1.24
E14: I 1.45 | F 1.31 | K 1.56 | P 0.587 | Q 1.42 | V 1.25 | D 1.1 | S 1.4 | L 1.58 | R 1.68 | M 1.42 | A 1.73 | N 1.21 | G 1.19 | H 1.21 | W 1.37 | Y 1.33 | T 1.3
A26: D 0.604 | V 0.954 | N 0.638 | E 0.506 | I 1.27 | G 0.7 | Q 0.685 | Y 1.6 | S 0.724 | L 1.03 | P 0.691 | C 1.24 | T 0.686 | H 0.502 | R 0.603 | F 1.2 | M 0.854 | K 0.515 | W 1.24
T27: H 1.41 | G 1.08 | P 0.51 | Q 0.865 | K 1.09 | N 1.98 | S 1.57 | L 1.22 | R 0.962 | C 1.76 | W 1.66 | E 1.24 | V 1.09 | A 1.27 | M 1.17 | D 2.16 | I 1.11 | Y 1.62 | F 1.55
F24: Y 1.02 | N 0.509 | L 0.965 | C 1.49 | E 0.854 | G 0.708 | Q 0.726 | M 0.889 | I 1.03 | K 0.243 | R -0.367 | D 0.649 | H 0.746 | V 0.78 | T 0.846 | W 1.22 | A 0.492 | P 0.489 | S 0.627
K15: P 0.667 | T 1.29 | D 0.807 | A 1.33 | E 0.916 | G 1.08 | S 1.19 | Y 1.13 | Q 1.4 | I 0.793 | M 1.37 | F 1.15 | N 1.32 | L 1.4 | R 1.19 | W 1.07 | V 0.735 | H 1.3
I20: E 0.927 | C 2.04 | S 0.913 | N 0.801 | D 0.774 | F 0.891 | G 0.637 | W 1.13 | Y 1.02 | L 0.842 | A 1.03 | M 0.979 | Q 1.27 | P 0.732 | T 1.25 | H 0.961 | R 0.918 | V 1.27 | K 0.994
D23: I 1.52 | E 1.16 | H 1.02 | Y 1.3 | T 1.36 | W 1.64 | C 1.91 | P 0.958 | M 1.26 | G 1.16 | A 1.26 | N 1.4 | F 1.48 | V 1.38 | S 1.36 | K 1.06 | L 1.31 | R 0.773 | Q 1.14
T18: A 1.3 | E 1.12 | Q 1.28 | L 1.07 | W 1.76 | Y 1.37 | P 1.32 | M 1.32 | V 1.48 | D 0.988 | K 1.1 | G 1.23 | R 1.09 | I 1.67 | F 1.3 | N 1.07 | S 1.21 | H 1.16
K13: V 0.79 | H 0.747 | T 0.5 | C 1.82 | R 1.3 | W 1.09 | G 0.684 | N 0.575 | Q 0.869 | S 0.704 | E 0.58 | F 0.912 | I 0.852 | M 1.01 | L 1.16 | Y 1.07 | A 0.86 | D 0.676 | P 0.543
H21: D 0.707 | M 1.08 | Q 1.03 | Y 1.76 | F 1.52 | K 0.812 | E 0.742 | R 0.838 | A 0.946 | S 1.39 | P 0.759 | W 1.78 | N 0.77 | V 1.04 | I 1.03 | G 0.81 | L 1.29 | T 0.971
T28: W 1.19 | I 1.31 | F 1.32 | N 1.09 | V 1.17 | S 1.15 | M 1.34 | K 0.472 | E 0.679 | G 0.966 | P 0.562 | A 0.936 | D 0.797 | L 1.3 | Q 0.473 | C 1.98 | R 0.557 | Y 0.985 | H 0.534
